According to article PMC3378324:

Tests used:
[1] = target: Fyn(R96I)-SH3, 6xHis C-terminal fusion (human) (UniProt P06241); assay: ITC
[2] = target: Fyn(WT)-SH3, 6xHis C-terminal fusion (human) (UniProt P06241); assay: ITC
[3] = target: Nef (Human immunodeficiency virus 1) (UniProt P04324); conditions: cited from earlier work

Sequence of Fyn SH3 SH3 (P06241 79-146): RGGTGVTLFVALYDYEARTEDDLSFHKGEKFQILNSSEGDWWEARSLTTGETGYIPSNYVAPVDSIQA
Sequence of Fyn(R96I)-SH3, 6xHis C-terminal fusion (human) (P06241 86-143 R96I): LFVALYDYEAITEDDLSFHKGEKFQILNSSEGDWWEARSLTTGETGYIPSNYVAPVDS
Sequence of Fyn(WT)-SH3, 6xHis C-terminal fusion (human) (P06241 85-141): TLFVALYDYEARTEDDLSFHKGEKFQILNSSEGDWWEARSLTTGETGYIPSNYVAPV

| Kd [1] | Kd [2] | Substance | Kd [3] |
| --- | --- | --- | --- |
| 54 µM | 160 µM | ALIXPI peptide (Alix residues 737 to 760) (from UniProt Q8WUM4 737-760) | – |
| – | – | Fyn SH3 SH3 (from UniProt P06241) | > 20 µM |
